Data: patent US20060134709A1

What was measured:
[1] = target: soluble monomeric FcγRIIIA-linker-AVITAG (human) (UniProt P08637); assay: ELISA
[2] = target: soluble FcγRIIB (human) (UniProt P31994); assay: ELISA
[3] = target: soluble monomeric FcγRIIIA-linker-AVITAG (human) (UniProt P08637); assay: BIAcore
[4] = target: FcγRIIB-Fc fusion protein (human) (UniProt P31994); assay: BIAcore

| fold increase vs wt [1] [x] | fold increase vs wt [2] [x] | Substance | also measured |
| --- | --- | --- | --- |
| 0.5 | 6 | ch4-4-20 P343S, P353L, S375I, S383N (antibody) |  |
| 1.5 | 4.5 | ch4-4-20 S375C, P396L (antibody) |  |
| 1.5 | 4.7 | ch4-4-20 S400F, P396L (antibody) |  |
| 0.5 | 0.75 | ch4-4-20 S415I, L251F (antibody) |  |
| 1.3 | 4.2 | ch4-4-20 V240A, P396L (antibody) |  |
| 1.3 | 10.8 | ch4-4-20 V273I, K326E, L328I, P396L (antibody) |  |
| 0.5 | 7 | ch4-4-20 V282E, V369I, L406F (antibody) |  |
| 1.1 | 4 | ch4-4-20 V303I, P396L (antibody) |  |
| 0.5 | 0.75 | ch4-4-20 V348M, K334N, F275I, Y202M, K147T (antibody) |  |
| 1.9 | 4.7 | ch4-4-20 V427A, P396L (antibody) |  |

More lines, now with the values behind:

| Substance | fold increase vs wt [1] [x] | fold increase vs wt [2] [x] | also measured |
| --- | --- | --- | --- |
| ch4-4-20 P247L, I253N, K334N (antibody) | 3 | 2.5 |  |
| ch4-4-20 P247L, N421K (antibody) | 3 |  | fold vs wt [1]: 3 X; Kd [3]: 62 nM; koff [3]: 0.108 s⁻¹; Kd [4]: 66 nM; koff [4]: 0.065 s⁻¹ |
| ch4-4-20 P247S, P396L (antibody) | 1.2 | 4.2 |  |
| ch4-4-20 P291S, P353Q (antibody) |  |  | fold decrease vs wt [1]: 0.5 x; fold decrease vs wt [2]: 0.25 x |
| ch4-4-20 Q419H, P396L (antibody) | 2 | 6.9 |  |
| ch4-4-20 Q419L, P396L (antibody) | 2.2 | 6.1 |  |
| ch4-4-20 R255L, P396L (antibody) | 1.8 | 6 |  |
| ch4-4-20 R292G (antibody) |  |  | Koff WT/Mut [4]: 0.67 |
| ch4-4-20 R301H, K340E, D399E (antibody) |  |  | fold decrease vs wt [1]: 0.5 x; fold decrease vs wt [2]: 0.25 x |
| ch4-4-20 S298N, K360R, N361D (antibody) |  |  | Koff WT/Mut [4]: 0.67 |
| ch4-4-20 S298N, S407R (antibody) | 0.5 | 7 |  |
| ch4-4-20 S400P (antibody) | 1 | 6 |  |
| ch4-4-20 S407I (antibody) | 0.5 | 4 |  |
| ch4-4-20 S408I, V215I, V125L (antibody) | 0.5 | 0.75 |  |
| ch4-4-20 T215P, K274N, A287G, K334N, L365V, P396L (antibody) | 2 | 4 |  |
| ch4-4-20 T223I, T256S, L406F (antibody) | 0.25 | 6 |  |
| ch4-4-20 T225S (antibody) |  |  | fold decrease vs wt [1]: 0.25 x; fold decrease vs wt [2]: 0.5 x |
| ch4-4-20 T250S, P396L (antibody) | 1.5 | 6.8 |  |
| ch4-4-20 V215I, K290V, P396L (antibody) | 2.2 | 4.6 |  |
| ch4-4-20 V240I, V281M (antibody) |  |  | fold decrease vs wt [1]: 0.25 x; fold decrease vs wt [2]: 0.25 x |
| ch4-4-20 V305L, P396L (antibody) | 1.3 | 5.5 |  |
| ch4-4-20 V323I, P396L (antibody) | 1.1 | 8.2 |  |
| ch4-4-20 V379M (antibody) |  |  | Kd [3]: 160 nM |
| ch4-4-20 V379M, P396L (antibody) | 1.9 | 5.6 |  |
| ch4-4-20 Y319F, P352L, P396L (antibody) |  |  | Kd [3]: 125 nM; Kd [4]: 55.7 nM |
